Data published in patent US20160068605A1 (Janssen / Centocor, published 2016).
Values joined by “and” are separate entries in the source; they are usually repeats but may differ in a detail not shown here. Identical values can stand only once.

Assays:
[1] = biological target: T1, Recombinant human CD123 SP1 ECD-His tag protein (human, UniProt P26951 20-305); test: SPR Biacore 3000, captured mAb
T1 construct: bought from R&D Systems (#301-R3/CF); biotinylated for some assays; also called rhCD123 SP1; huCD123 ECD SP1
T1 sequence: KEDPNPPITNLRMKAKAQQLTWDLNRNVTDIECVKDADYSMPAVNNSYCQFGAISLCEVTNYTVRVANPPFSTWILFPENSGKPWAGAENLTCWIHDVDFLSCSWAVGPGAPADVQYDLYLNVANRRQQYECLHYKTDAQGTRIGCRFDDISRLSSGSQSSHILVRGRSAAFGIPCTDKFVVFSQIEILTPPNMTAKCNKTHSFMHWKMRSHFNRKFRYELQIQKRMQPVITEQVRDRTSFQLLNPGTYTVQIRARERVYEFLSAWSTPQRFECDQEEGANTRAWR
Procedure: (§1) Kinetic studies were performed at 25° C. using a Biacore 3000 (BIAcore, Inc., now part of GE Healthcare). […] Sheep anti-Human Fd specific antibody (The binding site Prod # PC075) was covalently attached to two flow cells (normally 3 and 4) of the carboxymethyl dextran coated gold surfaces (CM-5 Chip, Biacore). The carboxymethyl groups of dextran were activated with N-Ethyl-N′-(3-Dimethylaminopropyl)carbodiimide (EDC) and N-hydroxysuccinimide (NHS). The antibodies were coupled at pH 4.5 in 10 mM sodium acetate. Any remaining reactive sites on the surface were blocked by reaction with ethanolamine. […] Association data was collected for 2 min followed by 10 min of dissociation. The surface was regenerated with 30 μL of 100 mM H3PO4 100 μL/min. All samples were prepared in D-PBS containing 3 mM EDTA and 0.005% surfactant P20. Data reported is the difference in SPR signal between the flow cell containing the captured antibody or Fab and a reference cell without captured antibody or Fab. Additional instrumental contributions to the signal were removed by subtraction of the data from the blank injection from the reference-subtracted signal. Data were performed in triplicate and analyzed by fitting association and dissociation phases at all concentrations (global fit) with a 1:1 binding model using the BIAevaluation software (BIAcore, Inc.). […] Data presented is an average.

[2] = biological target: T1, Recombinant human CD123 SP1 ECD-His tag …; test: SPR ProteOn, captured mAb
Procedure: (§2) The biosensor surface was prepared by covalently coupling Goat anti-Human IgG (Fc) to the surface of a GLC chip (BioRad) using the manufacturer instructions for amine-coupling chemistry. […] The RU immobilized also included a goat anti-mouse Fc antibody that was added to capture other antibodies not included in the ones reported here. Since the mixture was 1:1 about 50% of these RU immobilized are expected to be goat anti-human Fc. The kinetic experiments were performed at 25° C. in running buffer (PBS pH 7.4, 0.005% P20, 3 mM EDTA). […] The reference spots (Goat anti-Human IgG (Fc)-modified surface) containing no candidate captured were used as a reference surface. Capture of mAb was followed by 3 min injection (association phase) of antigen at 40 μL/min, followed by 10 min of buffer flow (dissociation phase). […] Data was processed on the instrument software. Double reference subtraction of the data was performed by subtracting the curves generated by buffer injection from the reference-subtracted curves for analyte injections. Kinetic analysis of the data was performed using 1:1 Langmuir binding model with group fit. The result for each mAb was reported in the format of Kₐ (kon or on-rate), Kd (koff or off-rate), KD (Equilibrium dissociation constant) (Table 5).

[3] = biological target: T2, cyno CD123 ECD displayed on pDisplay-transfected cells (cynomolgus monkey); test: MSD cell binding on 293F pDisplay cells; fold change over background; parental 293F cells as control
T2 construct: ECD anchored on the surface of stably transfected HEK293 cells; also called cynoCD123 SP1 cells; cynoCD123 cells
T2 chain: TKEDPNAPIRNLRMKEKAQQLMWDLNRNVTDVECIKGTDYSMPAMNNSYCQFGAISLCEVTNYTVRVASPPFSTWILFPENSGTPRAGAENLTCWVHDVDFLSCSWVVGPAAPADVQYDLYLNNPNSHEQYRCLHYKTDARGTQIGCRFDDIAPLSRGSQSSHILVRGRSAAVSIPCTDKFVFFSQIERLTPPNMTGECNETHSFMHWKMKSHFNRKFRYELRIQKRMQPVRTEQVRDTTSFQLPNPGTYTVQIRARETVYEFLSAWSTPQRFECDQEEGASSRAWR
Procedure: (§3) The object of the screening assay was to identify antibodies that bound to cells expressing hCD123 SP1 and SP2 as well as cross reactivity with cells expressing cynoCD123 SP1.
(§4) Cells were immobilized and phages were assayed in triplicate. […] 5000 cells per well were plated into a 384 well plate (MA6000, cat. L21XB, MSD) and allowed to adhere for 2 hr. Cells were then blocked with 20% FBS in PBS (Gibco) for 15 mins. Antibody supernatants were then added and left at RT for 1 hr. Cells were washed 3 times with PBS and a ruthenium labeled secondary antibody (Jackson Immuno Research) was then added at 1 μg/mL and incubated for 1 hr at room temperature. A further washing step was then applied and 35 μL per well of MSD Read buffer T (surfactant free) was then added and incubated for 30 min for detection. Plates were then read using Sector Imager 2400 (MSD). Data was normalized to controls and graphed using GraphPad Prism Version 5. A positive binder was determined to be a hit with a signal 3× greater than background (FIGS. 2A, B and C).

[4] = biological target: T3, human CD123 SP2 ECD displayed on pDisplay-transfected cells (human, UniProt P26951 101-305); test: as above
T3 construct: ECD anchored on the surface of stably transfected HEK293 cells; also called hCD123 SP2 cells; pDisplay CD123SP2
T3 sequence: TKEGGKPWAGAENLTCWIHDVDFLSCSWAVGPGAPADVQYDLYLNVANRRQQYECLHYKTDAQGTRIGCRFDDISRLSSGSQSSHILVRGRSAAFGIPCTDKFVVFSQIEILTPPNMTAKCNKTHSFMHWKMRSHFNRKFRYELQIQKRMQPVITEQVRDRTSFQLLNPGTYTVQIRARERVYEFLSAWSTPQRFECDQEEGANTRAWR
Procedure: as §3, §4

[5] = biological target: T4, cell-surface CD3 epsilon on primary human T cells (human, UniProt P07766 23-207); test: flow cytometry on primary human T cells, anti-human IgG Alexa Fluor 647; MFI
T4 construct: whole, on cells; part of the CD3/TCR complex on the cells
Procedure: (§5) The resulting panel of anti-CD3 antibodies was tested for binding against cell-surface CD3ε on primary human T cells. To do this, binding of antibodies from expression supernatants was visualized using a polyclonal anti-human secondary antibody and analyzed by flow cytometry. Briefly, binding of anti-CD3 antibodies to cell-surface CD3ε was assessed by flow cytometry using primary Human T lymphocytes purified by negative selection (Biological Specialty, Colmar, USA). Expression supernatants or purified antibodies were normalized to 10 μg/ml in media or FACS buffer (BD BioSciences), respectively. 2×10⁵ cells were aliquoted into wells of a 96 well round-bottomed plate (CoStar) for labeling. Antibodies in expression supernatant were added to cells and incubated for 45 min at 4° C. Following centrifugation at 1300 rpm for 3 min and removal of supernatant, 50 μL of anti-human IgG (H+L) Alexa Fluor 647 secondary antibody (Life technologies Inc.) was incubated with the cells at a final concentration of 10 μg/mL for 30 min at 4° C. away from direct light. Following washing and resuspension in 30 μL FACs buffer (BD BioSciences). Sample collection was performed on an Intellicyt HTFC system using ForeCyt software. Viable single cells were gated prior to analysis of binding using the green or red fixable live/dead dyes (Life Technologies Inc.) and forward/side scatter area and height parameters, respectively. Graphs were generated in GraphPad Prism version 5 using mean fluorescence intensity values.

[6] = biological target: T5, cell-surface CD3 epsilon on primary cynomolgus T cells (cynomolgus monkey, UniProt Q95LI5 22-198); test: flow cytometry on primary cynomolgus CD4+ T cells, anti-human IgG Alexa Fluor 647; MFI
T5 construct: whole, on cells; also called cynomolgus CD3e; Cyno T-cells
Procedure: as §5
Binding analysis of the anti-CD3 hits to primary cynomolgusCD4⁺ T cells was then tested in order to assess the retention of cross-reactivity. Purified CD4⁺ T cells from the peripheral blood of cynomolgus monkeys (Zen Bio, Triangle Research Park, USA were used). Assay protocols were similar to those described above.

[7] = biological target: T6, Recombinant human CD123 SP2 ECD protein (human, UniProt P26951 101-303); test: SPR ProteOn, captured mAb
T6 construct: also called rhCD123 SP2; CD123 ECD SP2
T6 sequence: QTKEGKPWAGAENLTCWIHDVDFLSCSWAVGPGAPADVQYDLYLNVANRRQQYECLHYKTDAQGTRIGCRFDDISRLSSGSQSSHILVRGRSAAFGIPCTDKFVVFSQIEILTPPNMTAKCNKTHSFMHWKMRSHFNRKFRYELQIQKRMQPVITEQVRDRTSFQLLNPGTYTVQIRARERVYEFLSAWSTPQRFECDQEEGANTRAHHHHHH
Procedure: as §2

[8] = biological target: T1, Recombinant human CD123 SP1 ECD-His tag …; test: SPR Biacore 3000, captured Fab
Procedure: as §1

T4 sequence (P07766 23-207): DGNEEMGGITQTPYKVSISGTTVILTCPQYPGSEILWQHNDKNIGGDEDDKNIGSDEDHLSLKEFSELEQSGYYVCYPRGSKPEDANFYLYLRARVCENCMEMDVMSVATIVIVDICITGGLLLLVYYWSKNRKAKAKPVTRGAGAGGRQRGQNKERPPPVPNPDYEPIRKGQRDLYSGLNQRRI
T5 sequence (Q95LI5 22-198): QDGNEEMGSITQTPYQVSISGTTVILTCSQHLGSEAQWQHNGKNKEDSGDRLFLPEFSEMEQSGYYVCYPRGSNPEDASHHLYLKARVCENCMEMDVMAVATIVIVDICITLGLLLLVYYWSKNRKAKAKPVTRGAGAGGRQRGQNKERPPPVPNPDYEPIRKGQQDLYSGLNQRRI

B1: I3RB35 (antibody, IgG1, V domains shown)
VH: QVQLVQSGAEVKKPGSSVKVSCKASGGTFSSYAISWVRQAPGQGLEWMGGIIPIFGTANYAQKFQGRVTITADESTSTAYMELSSLRSEDTAVYYCARHLFWDAGPLDYWGQGTLVTVSS
VL: DIQMTQSPSSLSASVGDRVTITCRASQSISSYLNWYQQKPGKAPKLLIYAASSLQSGVPSRFSGSGSGTDFTLTISSLQPEDFATYYCQQYFSPPYTFGQGTKVEIK
notes: IgG1
Kd [1]: 4.8 nM
koff [1]: 0.00258 s⁻¹
kon [1]: 540000 M⁻¹ s⁻¹
Kd [2]: 2.83 nM
koff [2]: 0.00293 s⁻¹
kon [2]: 1.04e+06 M⁻¹ s⁻¹
binding result [3]: binds

B2: I3RB37 (antibody, IgG1, V domains shown)
VH: QVQLVQSGAEVKKPGSSVKVSCKASGGTFSSYAISWVRQAPGQGLEWMGGIIPIFGTANYAQKFQGRVTITADESTSTAYMELSSLRSEDTAVYYCARDKTDFPSRLDYWGQGTLVTVSS
VL: DIQMTQSPSSLSASVGDRVTITCRASQSIATWLNWYQQKPGKAPKLLIYAASSLQSGVPSRFSGSGSGTDFTLTISSLQPEDFATYYCQQYITFPLTFGQGTKVEIK
notes: IgG1
Kd [1]: 9.7 nM
koff [1]: 0.0053 s⁻¹
kon [1]: 545000 M⁻¹ s⁻¹
Kd [2]: 6.27 nM and 5.15 nM
koff [2]: 0.00669 s⁻¹ and 0.00621 s⁻¹
kon [2]: 1.07e+06 M⁻¹ s⁻¹ and 1.21e+06 M⁻¹ s⁻¹
binding result [4]: no binding (tested: 10 µg/mL)
binding result [3]: binds

B3: G11 (antibody, V domains shown)
VH: EVQLLESGGGLVQPGGSLRLSCAASGFTFSSYGMSWVRQAPGKGLEWVSGINGGGGSKYYADSVKGRFTISRDNSKNTLYLQMNSLRAEDTAVYYCAKTSAQRFDYWGQGTLVTVSS
VL: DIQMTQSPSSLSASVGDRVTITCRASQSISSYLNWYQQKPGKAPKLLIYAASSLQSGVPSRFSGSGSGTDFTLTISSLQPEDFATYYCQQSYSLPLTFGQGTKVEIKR
notes: in-house phage-derived anti-CD3 positive control with the same Fc region as the tested antibodies
binding result [5]: binds

B4: CD3B148 (antibody, IgG1, V domains shown)
VH: EVQLLESGGGLVQPGGSLRLSCAASGFTFNTYAMNWVRQAPGKGLEWVARIRSKYNNYATYYADSVKGRFTISRDNSKNTLYLQMNSLRAEDTAVYYCAKHGNFGNSYVSWFAYWGQGTLVTVSS
VL: QSVLTQPPSVSAAPGQKVTISCRSSTGAVTTSNYANWVQQLPGTAPKGLIGGTNKRAPGIPDRFSGSKSGTSATLGITGLQTGDEADYYCALWYSNLWVFGGGTKLTVL
notes: IgG1 constant region with L234A, L235A, F405L; human lambda light chain constant region
binding result [6]: no binding (tested: not printed)

B5: CD3B144 (antibody, IgG1, V domains shown)
VH: EVQLVESGGGLVQPGGSLRLSCAASGFTFNTYAMNWVRQAPGKGLEWVARIRSKYNNYATYYAASVKGRFTISRDDSKNSLYLQMNSLKTEDTAVYYCARHGNFGNSYVSWFAYWGQGTLVTVSS
VL: QSVLTQPPSVSAAPGQKVTISCRSSTGAVTTSNYANWVQQLPGTAPKGLIGGTNKRAPGIPDRFSGSKSGTSATLGITGLQTGDEADYYCALWYSNLWVFGGGTKLTVL
notes: as for B4
binding result [5]: no binding

B6: I3RB9 (antibody, IgG1, V domains shown)
VH: QVQLVQSGAEVKKPGSSVKVSCKASGGTFSSYAISWVRQAPGQGLEWMGGIIPIFGTANYAQKFQGRVTITADESTSTAYMELSSLRSEDTAVYYCARGARWFNPPENLDYWGQGTLVTVSS
VL: not shown
notes: IgG1; also called I3RB09
binding result [7]: no binding (tested: 400 nM)
Kd [2]: 12.4 nM
koff [2]: 0.00843 s⁻¹
kon [2]: 680000 M⁻¹ s⁻¹
binding result [4]: no binding (tested: 10 µg/mL)
binding result [3]: no binding (tested: 10 µg/mL)

B7: I3RB122 (Fab, V domains shown)
VH: QVQLVQSGAEVKKPGSSVKVSCKASGGTFSSYAISWVRQAPGQGLEWMGGIIPIFGTANYAQKFQGRVTITADESTSTAYMELSSLRSEDTAVYYCARDKTDFPSRLDYWGQGTLVTVSS
VL: DIQMTQSPSSLSASVGDRVTITCRASQSIATWLNWYQQKPGKAPKLLIYAASSLQSGVPSRFSGSGSGTDFTLTISSLQPEDFATYYCQQYITFPLTFGQGTKVEIK
notes: also called Fab of I3RB37
Kd [8]: 11.5 nM
koff [8]: 0.0045 s⁻¹
kon [8]: 393000 M⁻¹ s⁻¹
